From patent US6339139

Key:
Test in all cases: cell-based or functional assay
[1] = target: insulin growth factor I receptor (human) (UniProt P08069)
[2] = target: insulin growth factor II receptor (human) (UniProt P11717)
[3] = target: epidermal growth factor receptor (human) (UniProt P00533)

Chain of UniProt P11717 (P11717 41-2491): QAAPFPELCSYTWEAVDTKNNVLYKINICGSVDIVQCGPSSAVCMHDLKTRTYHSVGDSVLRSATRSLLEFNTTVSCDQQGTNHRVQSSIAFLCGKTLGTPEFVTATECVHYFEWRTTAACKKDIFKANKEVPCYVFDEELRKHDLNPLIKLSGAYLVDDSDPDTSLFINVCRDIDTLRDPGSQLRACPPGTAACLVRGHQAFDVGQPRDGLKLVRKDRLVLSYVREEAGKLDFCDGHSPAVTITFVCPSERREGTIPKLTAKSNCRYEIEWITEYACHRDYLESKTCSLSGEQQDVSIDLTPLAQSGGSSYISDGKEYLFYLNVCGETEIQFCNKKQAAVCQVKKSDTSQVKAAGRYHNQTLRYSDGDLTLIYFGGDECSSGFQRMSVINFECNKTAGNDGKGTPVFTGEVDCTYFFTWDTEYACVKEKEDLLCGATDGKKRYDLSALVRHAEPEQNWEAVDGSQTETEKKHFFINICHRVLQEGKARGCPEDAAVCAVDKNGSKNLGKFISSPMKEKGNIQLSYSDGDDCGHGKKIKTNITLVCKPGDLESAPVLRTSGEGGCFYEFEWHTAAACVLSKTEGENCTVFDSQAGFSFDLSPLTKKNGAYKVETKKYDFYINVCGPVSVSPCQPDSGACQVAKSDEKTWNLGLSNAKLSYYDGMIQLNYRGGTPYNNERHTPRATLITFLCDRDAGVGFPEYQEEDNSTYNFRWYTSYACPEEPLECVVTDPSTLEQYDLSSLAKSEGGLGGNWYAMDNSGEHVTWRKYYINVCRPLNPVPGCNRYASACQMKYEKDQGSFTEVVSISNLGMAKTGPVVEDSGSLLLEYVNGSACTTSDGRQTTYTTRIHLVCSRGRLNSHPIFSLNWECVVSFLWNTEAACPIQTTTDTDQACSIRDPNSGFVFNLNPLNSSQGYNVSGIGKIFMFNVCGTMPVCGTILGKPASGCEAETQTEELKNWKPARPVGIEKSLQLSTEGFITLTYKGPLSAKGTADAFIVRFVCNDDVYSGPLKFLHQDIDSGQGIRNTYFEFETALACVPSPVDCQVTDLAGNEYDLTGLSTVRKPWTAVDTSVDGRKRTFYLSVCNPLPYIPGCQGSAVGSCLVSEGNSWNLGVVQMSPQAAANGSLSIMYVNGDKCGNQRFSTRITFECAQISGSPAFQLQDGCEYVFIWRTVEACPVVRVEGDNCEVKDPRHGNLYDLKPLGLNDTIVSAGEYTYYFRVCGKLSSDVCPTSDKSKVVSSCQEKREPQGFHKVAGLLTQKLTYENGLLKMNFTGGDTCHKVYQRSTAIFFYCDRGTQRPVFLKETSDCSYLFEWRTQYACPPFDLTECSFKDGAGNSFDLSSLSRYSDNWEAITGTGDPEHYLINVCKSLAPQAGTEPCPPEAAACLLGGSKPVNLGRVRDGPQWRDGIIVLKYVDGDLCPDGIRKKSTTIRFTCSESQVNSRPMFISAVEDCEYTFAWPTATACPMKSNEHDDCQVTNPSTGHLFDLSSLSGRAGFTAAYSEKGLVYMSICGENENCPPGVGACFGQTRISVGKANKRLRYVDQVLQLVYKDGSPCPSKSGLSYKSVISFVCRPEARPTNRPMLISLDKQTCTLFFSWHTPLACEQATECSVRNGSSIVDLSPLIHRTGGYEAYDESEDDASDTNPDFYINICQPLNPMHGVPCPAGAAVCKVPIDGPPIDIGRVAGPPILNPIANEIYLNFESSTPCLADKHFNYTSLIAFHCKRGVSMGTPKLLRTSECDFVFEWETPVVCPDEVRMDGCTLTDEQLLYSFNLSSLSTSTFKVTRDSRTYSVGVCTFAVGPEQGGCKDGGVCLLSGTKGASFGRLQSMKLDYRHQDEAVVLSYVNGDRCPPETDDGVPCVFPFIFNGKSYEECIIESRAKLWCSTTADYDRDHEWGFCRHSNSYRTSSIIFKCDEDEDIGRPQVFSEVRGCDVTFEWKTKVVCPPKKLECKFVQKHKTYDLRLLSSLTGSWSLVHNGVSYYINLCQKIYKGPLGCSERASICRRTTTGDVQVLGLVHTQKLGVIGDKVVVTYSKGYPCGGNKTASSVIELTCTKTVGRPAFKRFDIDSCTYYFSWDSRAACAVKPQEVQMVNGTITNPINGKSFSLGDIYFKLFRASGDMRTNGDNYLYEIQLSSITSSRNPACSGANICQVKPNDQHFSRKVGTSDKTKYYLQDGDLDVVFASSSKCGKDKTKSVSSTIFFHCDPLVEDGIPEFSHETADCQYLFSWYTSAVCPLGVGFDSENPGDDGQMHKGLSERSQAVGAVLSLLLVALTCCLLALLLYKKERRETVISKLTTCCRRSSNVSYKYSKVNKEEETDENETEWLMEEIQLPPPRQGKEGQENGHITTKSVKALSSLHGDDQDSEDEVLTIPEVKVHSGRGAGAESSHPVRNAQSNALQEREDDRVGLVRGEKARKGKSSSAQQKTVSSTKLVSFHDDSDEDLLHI
Chain of UniProt P08069 (P08069 31-1367): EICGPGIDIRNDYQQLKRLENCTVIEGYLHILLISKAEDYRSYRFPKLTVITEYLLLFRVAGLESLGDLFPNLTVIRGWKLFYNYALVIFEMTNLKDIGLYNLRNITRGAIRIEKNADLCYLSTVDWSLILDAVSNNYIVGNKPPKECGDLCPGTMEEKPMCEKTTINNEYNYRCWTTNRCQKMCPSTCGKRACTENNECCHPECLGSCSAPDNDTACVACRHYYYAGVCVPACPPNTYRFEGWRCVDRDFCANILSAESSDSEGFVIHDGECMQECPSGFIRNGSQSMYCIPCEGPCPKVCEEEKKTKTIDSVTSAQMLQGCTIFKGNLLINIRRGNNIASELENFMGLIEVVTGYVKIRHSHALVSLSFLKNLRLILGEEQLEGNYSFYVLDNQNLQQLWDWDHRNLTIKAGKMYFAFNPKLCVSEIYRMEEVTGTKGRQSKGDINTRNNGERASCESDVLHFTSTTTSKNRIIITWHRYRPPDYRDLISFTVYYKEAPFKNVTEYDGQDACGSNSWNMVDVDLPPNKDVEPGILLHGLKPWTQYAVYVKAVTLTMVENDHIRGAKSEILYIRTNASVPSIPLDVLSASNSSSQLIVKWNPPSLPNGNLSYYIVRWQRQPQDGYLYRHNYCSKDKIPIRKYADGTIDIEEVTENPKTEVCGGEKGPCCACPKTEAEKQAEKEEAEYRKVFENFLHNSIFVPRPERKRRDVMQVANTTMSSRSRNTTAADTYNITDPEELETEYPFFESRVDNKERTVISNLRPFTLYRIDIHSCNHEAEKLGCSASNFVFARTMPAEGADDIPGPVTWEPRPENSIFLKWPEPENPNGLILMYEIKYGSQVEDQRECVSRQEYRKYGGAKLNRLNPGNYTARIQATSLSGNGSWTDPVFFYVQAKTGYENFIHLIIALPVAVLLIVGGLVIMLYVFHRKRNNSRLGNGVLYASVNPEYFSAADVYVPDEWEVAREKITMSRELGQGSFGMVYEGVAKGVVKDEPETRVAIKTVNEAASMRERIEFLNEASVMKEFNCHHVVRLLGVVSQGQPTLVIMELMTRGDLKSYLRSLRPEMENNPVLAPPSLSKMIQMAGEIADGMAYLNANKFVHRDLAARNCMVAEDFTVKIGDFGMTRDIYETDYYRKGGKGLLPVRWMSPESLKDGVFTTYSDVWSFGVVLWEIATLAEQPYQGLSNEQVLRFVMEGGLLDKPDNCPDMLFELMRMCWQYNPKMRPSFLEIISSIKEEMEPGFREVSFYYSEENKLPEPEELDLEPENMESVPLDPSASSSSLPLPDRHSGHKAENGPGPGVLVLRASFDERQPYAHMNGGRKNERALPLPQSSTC

Row | Substance | Percentage of β-gal positive cells, SMMC-7721 [1] [%] | Percentage of β-gal positive cells, SMMC-7721 [2] [%] | Percentage of β-gal (+) cells, 3AO [3] [%] | Percentage of β-gal (+) cells, BEL-7402 [3] [%] | Percentage of β-gal (+) cells, Bcap-37 [3] [%] | Percentage of β-gal (+) cells, SMMC-7721 [3] [%] | Percentage of β-gal (+) cells, SPC-A1 [3] [%] | Percentage of β-gal (+) cells, U87 [3] [%]
1 | E5-polylysine/HA20-polylysine/pSV β-gal DNA | 60 | 60 | – | – | – | – | – | –
2 | E5-polylysine/pSV β-gal DNA | 10 | 10 | – | – | – | – | – | –
3 | GE7-polylysine/HA20-polylysine/pSV-β-gal DNA | – | – | > 65 | > 90 | > 80 | > 80 | > 80 | > 30
